Experimental data from US20090004211A1, “METHOD FOR EFFECTING LOCALIZED, NON-SYSTEMIC AND SYSTEMIC, IMMUNOGENIC TREATMENT OF CANCER USING ERP57 TRANSLOCATION” (priority 2006, published 2009).
Entries after “also recorded” stand apart in the source; their conditions may differ.

Tests used:
CRT = experiment: Fluorescence detection of cell surface CRT (cytofluorometry); conditions: for time after treatment at which CRT exposure is detectable: intact cells; for reversal of siRNA-induced defect at the level of CRT expression: CRT-specific or ERP57 specific siRNA, recombinant protein added
Description: CT26 cells (on a glass slide or in 12-well plates) were first washed with FACS buffer (1×PBS, 5% fetus bovine serum, and 0.1% sodium azide) and then incubated with rabbit anti-mouse CRT antibody (1:100, Stressgen), or rabbit anti-mouse ERP57 antibody (abcam) in FACS buffer at 4° C. for 30 min. […] After washing three times with FACS buffer, surface CRT and ERP57 was detected by cytofluorometric analysis on a FACS Vantage. In some experiments, cells were fixed with 4% paraformaldehyde, counterstained with Hoechst (2 μM; Sigma), followed by fluorescence microscopic assessment.
Trypsinized CT26 cells were enucleated as described. Briefly, cells were treated in 2 ml of complete RPMI medium containing cytochalasin B (10 μg/ml; Sigma) and DNase I (80 U/ml; Sigma). […] Gradients containing cell suspensions were centrifugated in a prewarmed SW41 Beckman rotor at 25 000 rpm for 20 minutes at 30° C. […] Then the cell surface CRT was detected (see materials and methods) and the viability was determined by with propidium iodine staining (2 μg/ml, Sigma) for 5 min followed by cytofluorometric analysis.

CT26 tumor cells [1] = experiment: Anti-tumor vaccination: treated dying CT26 cells injected s.c., challenge with live tumor cells in opposite flank; format: in vivo, BALB/c mice; conditions: for restoration of immunogenicity defect by recombinant protein, anti-tumor vaccination: siRNA-transfected, mitoxantrone-treated CT26 cells
CT26 tumors = experiment: Treatment of established CT26 tumors by single intratumoral injection; format: in vivo, BALB/c mice; conditions: for therapeutic effect of single intratumoral injection: agent alone
Description: (§1) All animals were maintained in specific pathogen-free conditions and all experiments followed the FELASA guidelines. 3×10^6 treated CT26 cells were inoculated s.c. in […] of PBS into BALB/c six-week-old female mice, into the lower flank, while 5×10^5 untreated control cells were inoculated into the contralateral flank. For the tumorigenicity assay, 3×10^6 treated or untreated CT26 cells were injected s.c. into nu/nu mice. To assess the specificity of the immune response against CT26, injections of either 5×10^5 or 5×10^6 of CT26 were made (for the mice immunized in a standard protocol or vaccination protocol, respectively). Tumors were evaluated weekly, using a caliper. In a series of experiments, BALB/c (wild type or nu/nu) carrying palpable CT26 tumors (implanted 14 days before for wild type or 7 days before for nu/nu mice by injection of […] tumor cells) received a single intratumoral injection of […] PBS containing the same concentration of anti-cancer agents and PP1/GADD34 inhibitors as those used in vitro, as well as rCRT ([…]). For the assessment of local immune response, 3×10^5 cells were injected in 50 μl into the footpad of mice. Five days later, mice were sacrificed and the draining lymph nodes were harvested. 1×10^5 lymph node cells were cultured for 4 days alone or with 1×10^4 CT26 cells killed by a freeze-thaw cycle in 200 μl in round-bottom 96-well plates. IFN-γ was determined by ELISA.

ERP57 [2] = experiment: Fluorescence detection of cell surface ERP57 (cytofluorometry); format: cell-based, mouse
Description: CT26 cells (on a glass slide or in 12-well plates) were first washed with FACS buffer (1×PBS, 5% fetus bovine serum, and 0.1% sodium azide) and then incubated with rabbit anti-mouse CRT antibody (1:100, Stressgen), or rabbit anti-mouse ERP57 antibody (abcam) in FACS buffer at 4° C. for 30 min. Cells reacted with anti-rabbit IgG (H+L) Alexa fluor 488-conjugates (1:500) in FACS buffer at 4° C. for 30 min. After washing three times with FACS buffer, surface CRT and ERP57 was detected by cytofluorometric analysis on a FACS Vantage. In some experiments, cells were fixed with 4% paraformaldehyde, counterstained with Hoechst (2 μM; Sigma), followed by fluorescence microscopic assessment.

CT26 cells [3] = experiment: Phagocytosis assay: uptake of treated tumor cells by dendritic cells; format: cell-based, mouse; conditions: for reversal of siRNA-induced defect at the level of phagocytosis by DC: CRT-specific or ERP57 specific siRNA, recombinant protein added
Description: BM cells were flushed from the tibias and femurs of BALB/c mice with culture medium composed of RPMA 1640 medium supplemented with 10% heat-inactivated FBS, sodium pyruvate, […] 2-ME. 10 mM HEPES (pH 7.4), and penicillin/streptomycin. After one centrifugation, BM cells were resuspended in Tris-ammonium chloride for 2 min to lyse RBC. After one more centrifugation, BM cells (1×10^6 cells/ml) were cultured in medium supplemented with 100 ng/ml recombinant mouse FLT3 ligand in 6-well plates. […] In 12-well plates, […] adherent CT26 cells were labeled with Celltracker Orange and then incubated with drugs. […] Alternatively CT26 cells were coated with 3 μg/10^6 cells of rCRT on ice for 30 minutes and washed twice prior to addition to dendritic cells. Cells were then harvested, washed three times with medium supplemented with FBS and cocultured with immature DC for 2 hours at a ratio of 1:1 and 1:5. At the end of the incubation, cells were harvested with Versene, pooled with non-adherent cells present in the supernatant, washed and stained with CD11c-FITC antibody. Phagocytosis was assessed by FACS analysis of double positive cells. Phagocytic indexes refer to the ratio between values obtained at […] of co-incubation between DC and tumor cells. Trypsinized CT26 cells were enucleated as described. Briefly, cells were treated in 2 ml of complete RPMI medium containing cytochalasin B (10 μg/ml; Sigma) and DNase I (80 U/ml; Sigma). Cell suspension was adjusted to a final concentration of 5×10^6/ml and incubated at 37° C. for 45 minutes before being layered onto a previously prepared discontinuous Ficoll density gradient (3 ml of 100%, in 1 ml of 90% and 3 ml of 55% Ficoll Paque layer containing 5 μg/ml cytochalasin B and 40 U/ml DNase I; gradients were prepared in ultracentrifuge tubes and pre-equilibrated at 37° C. in a CO2 incubator overnight). Gradients containing cell suspensions were centrifugated in a prewarmed SW41 Beckman rotor at 25 000 rpm for 20 minutes at 30° C. The cytoplasts-enriched fraction was collected from the interface between 90 and 100% Ficoll layers, washed in complete RPMI 1640 medium, and incubated at 37° C. The cells were incubated with mitoxantrone (MTX), calyculin (CA), salubrinal (Sal) and toutomycin (TA) for the period of time indicated in the experiment. […] Alternatively cythoplasts were cocultured with immature DC for 2 hours at a ratio of 1:1 and 1:5. At the end of the incubation, cells were harvested with versene, pooled with non-adherent cells present in the supernatant, washed and stained with CD11c-FITC antibody. Phagocytosis was assessed by FACS analysis of double positive cells.

ERP57 [4] = experiment: Fluorescence detection of cell surface ERP57 (cytofluorometry); format: cell-based, mouse; conditions: murine MCA205, B16F10, J558; human HeLa, A549, HCT116
CT26 cells [5] = tested on: CT26 cells
CT26 tumor cells [6] = experiment: Local immune response: tumor cells injected into footpad, IFN-γ secretion by draining lymph node cells (ELISA); format: in vivo, Balb/c mice; conditions: for restoration of immunogenicity defect by recombinant protein, interferon-γ production: siRNA-transfected, mitoxantrone-treated CT26 cells
Description: as §1

DC = DC maturation ex vivo; format: cell-based; conditions: protein alone, large range of concentrations
sperm-egg fusion = experiment: Sperm-egg fusion assay; format: cell-based, ICR mice
Description: Gamete Isolation. Using mature, cumulus-free oocytes from superovulated 6-week-old to 8-week-old ICR female mice, eggs were denuded from the zona pellucida and loaded with DAPI. Sperms were collected from each cauda epididymis and vas deferens of 10- to 12-week-old ICR males. […] […] All the experiments were performed according to the animal care and use protocols approved by French and European Union Ethical Committee.
Sperm-Egg Fusion Assay. […] After the incubation, the sperms or eggs were washed. Sperms were added at a final concentration of 1-3×10^5 sperm/ml and coincubated with gamete for 40 min at 37° C. and 5% CO2. The oocytes were then washed to release loosely bound sperms and mounted onto microscope slides. Alternatively, non-capacitated sperms were incubated with recombinant CRT or ERP57, 3 μg/10^5 sperm, for 30 min 37° C. and 5% CO2, followed by three washes with PBS. Sperm-egg fusion scored by the fluorescent labeling of sperm nuclei by DAPI transferred from preloaded eggs. Fertilization rote (FR) is the percentage of oocytes with at least one fused sperm, and Fertilization index (FI) is the mean number of fused sperm per egg. Both the FR and FI are expressed of the control treatment.

[7] = immunocompetent BALB/c mice, 14-day-old CT26 tumors

## O=C1c2c(O)ccc(O)c2C(=O)c2c(NCCNCCO)ccc(NCCNCCO)c21 [mitoxantrone]
CRT; cytoplasts
  time to CRT exposure in enucleated cells: ≤ 1 h
CRT
  time after treatment at which CRT exposure is detectable: 1 h
CRT; murine MCA205, B16F10, J558, human HeLa, A549, HCT116
  CRT exposure on panel of tumor cell lines: induced
CT26 tumor cells [1]; CT26 cells treated in vitro with agent alone, immunocompetent BALB/c mice
  immunogenicity of cell death (protection against tumor growth on rechallenge): elicited immunogenic cell death
CT26 tumors; [7]
  therapeutic effect of single intratumoral injection: permanent regression in some but not all cases
CT26 tumors; immunodeficient nu/nu mice
  therapeutic effect of single intratumoral injection: no cure
ERP57 [2]; cytoplasts
  time to ERP57 exposure in enucleated cells: ≤ 1 h
CT26 cells [3]; before apoptotic changes
  time after treatment at which tumor cells are phagocytosed by DC: within a few hours after treatment
CT26 cells [3]; enucleated cells (cytoplasts)
  uptake of treated cytoplasts by DC: as efficiently as intact cells
ERP57 [4]
  ERP57 exposure on panel of tumor cell lines: induced

## peptide inhibitor: protein transduction domain-5 (RRQRRTSKLMKR) fused to the inhibitory sequence of the complex PP1/GADD34 (LKARKVRFSEKV) (RRQRRTSKLMKRLKARKVRFSEKV)
CRT; CT26 cells, agent alone
  CRT exposure at cell surface: increase greatly and quickly
CRT
  time after treatment at which CRT exposure is detectable: 1 h
CT26 cells [5]; 24 h of treatment
  toxic effect: no toxic effect
CT26 cells [5]; after 24 h of treatment
  percentage of dead cells positive for DAPI and Annexin V: did not increase the percentage of dead cells
ERP57 [2]; CT26 cells, agent alone
  ERP57 exposure at cell surface: increase greatly and quickly
ERP57 [2]; intact cells
  time after treatment at which ERP57 exposure is detectable: 1 h

B1: rCRT: recombinant CRT (calreticulin) protein, which binds to the surface of the cells (protein)
chain: DPAIYFKEQFLDGDAWTNRWVESKHKSDFGKFVLSSGKFYGDLEKDKGLQTSQDARFYALSAKFEPFSNKGQTLVVQFTVKHEQNIDCGGGYVKLFPSGLDQKDMHGDSEYNIMFGPDICGPGTKKVHVIFNYKGKNVLINKDIRCKDDEFTHLYTLIVRPDNTYEVKIDNSQVESGSLEDDWDFLPPKKIKDPDAAKPEDWDERAKIDDPTDSKPEDWDKPEHIPDPDAKKPEDWDEEMDGEWEPPVIQNPEYKGEWKPRQIDNPDYKGTWIHPEIDNPEYSPDANIYAYDSFAVLGLDLWQVKSGTIFDNFLITNDEAYAEEFGNETWGVTKAAEKQMKDKQDEEQRLKEEEEDKKRKEEEEAEDKEDDDDRDEDEDEEDEKEEDEEESPGQAKDEL
CT26 tumor cells [6]; mitomycin C-treated cells
  immunogenicity of mitomycin C-treated cells with protein absorbed to plasma membrane: greatly enhanced the immunogenicity
CT26 tumor cells [6]
  restoration of immunogenicity defect by recombinant protein, interferon-γ production: this defect was restored
CRT
  reversal of siRNA-induced defect at the level of CRT expression: could reverse the defect
CT26 tumor cells [1]; etoposide-treated cells
  anti-tumor immune response to etoposide-treated cells coated with protein: elicited a vigorous anti-tumor immune response
CT26 tumor cells [1]; live cells, no cell death inducer
  anti-cancer immune response, protein absorbed to cells without prior cell death inducer: failed to elicit an anti-cancer immune response
CT26 tumor cells [1]
  restoration of immunogenicity defect by recombinant protein, anti-tumor vaccination: this defect was restored; also recorded: restores the protection against tumors
CT26 tumors; [7]
  therapeutic effect of single intratumoral injection: no major therapeutic effect
CT26 tumors; immunodeficient nu/nu mice
  therapeutic effect of single intratumoral injection: no major therapeutic effect
CT26 tumors; contralateral subcutaneous injection
  effect of injection into a distant site on antitumoral effects of intratumorally injected etoposide: did not ameliorate the antitumoral effects
CT26 tumors; immunocompetent animals
  therapeutic effect of intratumoral injection combined with etoposide or mitomycin C: able to cause tumor regression
CT26 tumors; immunodeficient (athymic) animals
  therapeutic effect of intratumoral injection combined with etoposide or mitomycin C: not in immunodeficient
DC
  DC maturation ex vivo: could not promote DC maturation
sperm-egg fusion; non-capacitated sperm
  sperm-egg fusion, recombinant protein absorbed to sperm without prior capacitation: restores very efficiently the fusion
CT26 cells [3]
  reversal of siRNA-induced defect at the level of phagocytosis by DC: could reverse the defect; also recorded: restores phagocytosis

B2: rERP57: recombinant ERP57 protein (protein)
chain: SDVLELTDENFESRVSDTGSAGLMLVEFFAPWCGHCKRLAPEYEAAATRLKGIVPLAKVDCTANTNTCNKYGVSGYPTLKIFRDGEEAGAYDGPRTADGIVSHLKKQAGPASVPLRTEEEFKKFISDKDASVVGFFRDLFSDGHSEFLKAASNLRDNYRFAHTNIESLVKEYDDNGEGITIFRPLHLANKFEDKTVAYTEKKMTSGKIKKFIQDSIFGLCPHMTEDNKDLIQGKDLLTAYYDVDYEKNAKGSNYWRNRVMMVAKKFLDAGHKLNFAVASRKTFSHELSDFGLESTTGEVPVVAIRTAKGEKFVMQEEFSRDGKALEQFLQEYFDGNLKRYLKSEPIPESNEGPVKVVVAENFDDIVNEEDKDVLIEFYAPWCGHCKNLEPKYKELGEKLSKDPNIVIAKMDATANDVPSPYEVKGFPTIYFSPANKKLTPKKYEGGRELNDFISYLQREATNPPIIQEEKPKKKKKAQEDL
CT26 tumor cells [6]
  restoration of immunogenicity defect by recombinant protein, interferon-γ production: not restored
CT26 tumor cells [6]; listed as recombinant ERP57
  restoration of immunogenicity defect by recombinant protein, interferon-γ production: did not restore
CRT
  reversal of siRNA-induced defect at the level of CRT expression: did not reverse the defect
CT26 tumor cells [1]
  restoration of immunogenicity defect by recombinant protein, anti-tumor vaccination: not restored
CT26 tumor cells [1]; listed as recombinant ERP57
  restoration of immunogenicity defect by recombinant protein, anti-tumor vaccination: did not restore the protection against tumors
DC
  DC maturation ex vivo: could not promote DC maturation
sperm-egg fusion; non-capacitated sperm with recombinant protein
  fertilization rate and index: no significant effect
CT26 cells [3]
  reversal of siRNA-induced defect at the level of phagocytosis by DC: did not reverse the defect
